Residue numbers refer to the chain shown, from its start. Names and notes keep the numbering of the source.
Biological target: the molecule itself
Experiment: SEC

B1: Mtb-MazG (1–185) (domain or fragment)
chain: MIVVLVDPRRPTLVPVEAIEFLRGEVQYTEEMPVAVPWSLPAARSAHAGNDAPVLLSSDPNHPAVITRLAAGARLISAPDSQRGERLVDAVAMMDKLRTAGPWESEQTHDSLRRYLLEETYELLDAVRSGSVDQLREELGDLLLQVLFHARIAEDASQSPFTIDDVADTLMRKLGNRAPGVLAGE
stoichiometry N: 2

B2: Mtb-MazG E119A (enzyme)
chain: MIVVLVDPRRPTLVPVEAIEFLRGEVQYTEEMPVAVPWSLPAARSAHAGNDAPVLLSSDPNHPAVITRLAAGARLISAPDSQRGERLVDAVAMMDKLRTAGPWESEQTHDSLRRYLLEATYELLDAVRSGSVDQLREELGDLLLQVLFHARIAEDASQSPFTIDDVADTLMRKLGNRAPGVLAGESISLEDQLAQWEAAKASEKARKSVADDVHTGQPALALAQKVIQRAQKAGLPAHLIPDEITSVSVSADVDAENTLRTAVLDFIDRLRCAERAIAVARRGSNVAEQLDVTPLGVITEQEWLAHWPTAVNDSRGGSKKRKGMR
stoichiometry N: 2

B3: Mtb-MazG E138A (enzyme)
chain: B2 chain with A119E, E138A
stoichiometry N: 2

B4: Mtb-MazG D141A (enzyme)
chain: B2 chain with A119E, D141A
stoichiometry N: 2

B5: Mtb-MazG E122A (enzyme)
chain: B2 chain with A119E, E122A
stoichiometry N: 2

Source: article PMC10014863, “Structural analysis of the housecleaning nucleoside triphosphate pyrophosphohydrolase MazG from Mycobacterium tuberculosis” (Frontiers in Microbiology, 2023)
